In patent US20090054344A1 one finds % inhibition of cell attachment data, which are given here for 1 molecule.

This assay has as its target αvβ3 integrin on C-PAE cells (bovine) (UniProt P80746). The assay can be described thus: C-PAE attachment to plates coated with 293-produced Tumstatin; 10 µg/ml peptide; competitor is the Tumstatin coat.

Sequence of αvβ3 integrin on C-PAE cells (bovine) (P80746 31-1048): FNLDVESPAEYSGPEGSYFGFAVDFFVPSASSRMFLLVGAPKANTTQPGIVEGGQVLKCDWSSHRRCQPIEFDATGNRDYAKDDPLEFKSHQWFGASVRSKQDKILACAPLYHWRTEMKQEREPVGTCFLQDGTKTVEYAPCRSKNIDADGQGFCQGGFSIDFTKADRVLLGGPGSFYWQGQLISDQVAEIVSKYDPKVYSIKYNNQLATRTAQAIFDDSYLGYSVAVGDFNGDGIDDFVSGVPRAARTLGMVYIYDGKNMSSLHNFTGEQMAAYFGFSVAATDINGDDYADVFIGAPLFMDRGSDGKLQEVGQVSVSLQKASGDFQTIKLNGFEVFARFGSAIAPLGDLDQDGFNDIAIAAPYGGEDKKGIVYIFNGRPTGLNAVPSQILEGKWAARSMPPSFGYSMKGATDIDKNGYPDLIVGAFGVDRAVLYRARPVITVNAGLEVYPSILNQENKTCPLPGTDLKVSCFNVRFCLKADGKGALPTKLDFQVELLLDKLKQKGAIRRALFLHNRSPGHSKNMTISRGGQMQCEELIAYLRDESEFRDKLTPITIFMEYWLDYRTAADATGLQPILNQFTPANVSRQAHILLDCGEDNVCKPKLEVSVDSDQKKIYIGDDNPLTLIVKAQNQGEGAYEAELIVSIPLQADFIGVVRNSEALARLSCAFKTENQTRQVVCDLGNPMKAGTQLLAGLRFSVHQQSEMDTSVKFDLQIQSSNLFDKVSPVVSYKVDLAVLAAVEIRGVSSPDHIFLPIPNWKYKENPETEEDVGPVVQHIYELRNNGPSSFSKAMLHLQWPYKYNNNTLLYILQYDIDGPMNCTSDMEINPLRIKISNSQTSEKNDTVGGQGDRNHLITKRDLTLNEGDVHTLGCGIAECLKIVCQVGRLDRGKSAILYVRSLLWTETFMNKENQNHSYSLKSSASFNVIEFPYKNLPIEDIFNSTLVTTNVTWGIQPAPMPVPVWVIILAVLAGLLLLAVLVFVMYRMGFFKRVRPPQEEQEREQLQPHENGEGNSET

B1: T3 peptide (peptide)
peptide: LQRFTTMPFLFCNVNDVCNF
Take B1: the % inhibition of cell attachment was found to be 46.4%.
